According to patent US20220236279A1:

Molecular target: human atypical chemokine receptor 3 (ACKR3) (human), P25106
Experiment: binding competition with CXCL12-AF647, flow cytometry
Conditions: chains peptide; remark: other sources report otherwise

Sequence of human atypical chemokine receptor 3 (ACKR3) (human), P25106 (P25106 whole entry): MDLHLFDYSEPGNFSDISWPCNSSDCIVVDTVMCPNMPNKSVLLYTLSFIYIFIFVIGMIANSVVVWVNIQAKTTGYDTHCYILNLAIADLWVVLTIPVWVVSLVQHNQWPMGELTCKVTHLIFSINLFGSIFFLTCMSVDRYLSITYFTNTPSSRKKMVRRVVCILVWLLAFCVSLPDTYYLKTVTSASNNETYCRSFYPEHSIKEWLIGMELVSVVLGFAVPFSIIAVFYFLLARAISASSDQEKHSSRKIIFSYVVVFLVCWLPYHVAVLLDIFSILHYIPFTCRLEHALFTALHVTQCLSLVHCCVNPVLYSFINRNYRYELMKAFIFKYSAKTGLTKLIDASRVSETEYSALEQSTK

IC50: > 10 µM
Binder: FGGFTGARKSARKLANQ [nociceptin, Q13519 130-146]
